Experimental data: patent publication US20260193375A1 (NORMUNITY, published 2026)
Substitutions are numbered along the chain they refer to.

T1: rLY6K-mFc (rat)
T1 chain: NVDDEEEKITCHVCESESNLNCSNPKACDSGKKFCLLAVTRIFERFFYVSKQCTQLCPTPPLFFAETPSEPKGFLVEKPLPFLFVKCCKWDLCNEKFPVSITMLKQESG

T2: hLY6K-mFc (human, UniProt Q17RY6 18-138)
T2 construct: not shown: mFc
T2 sequence: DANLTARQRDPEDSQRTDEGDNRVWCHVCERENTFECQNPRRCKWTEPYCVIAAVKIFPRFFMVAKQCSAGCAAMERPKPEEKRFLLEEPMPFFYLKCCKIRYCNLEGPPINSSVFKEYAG

T3: hLY6K-his (human, UniProt Q17RY6 18-138, limits assumed)
T3 construct: not shown: his tag
T3 sequence: T2 sequence

T4: cell-surface anchored LY6K (human, UniProt Q17RY6 18-138)
T4 construct: the cell is named under assay; also called LY6K on target cells
T4 sequence: T2 sequence

T5: recombinant human LY6K (Wuxi) (human, UniProt Q17RY6 18-138)
T5 construct: Limits of the construct not clearly stated; also called Human LY6K (Wuxi LY^KGLY138(1-38TR)_8His)
T5 sequence: T2 sequence

T6: Ly6D
T6 chain: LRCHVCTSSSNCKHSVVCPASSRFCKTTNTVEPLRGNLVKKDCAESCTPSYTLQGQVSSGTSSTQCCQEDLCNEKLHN

T7: human LY6E (R&D Systems) (human, UniProt Q16553 21-101, limits assumed)
T7 construct: also called hLY6E
T7 sequence (looked up): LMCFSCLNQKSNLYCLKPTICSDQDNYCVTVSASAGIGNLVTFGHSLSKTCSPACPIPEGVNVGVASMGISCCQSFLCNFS

T8: Ly6H
T8 chain: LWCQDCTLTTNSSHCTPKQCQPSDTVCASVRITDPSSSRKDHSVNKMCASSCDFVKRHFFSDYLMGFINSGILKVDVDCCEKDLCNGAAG

T9: Human LY6K (R&D Systems) (human, UniProt Q17RY6 18-138, limits assumed)
T9 construct: Bought from R&D Systems, coated on ELISA plates; also called hLY6K
T9 sequence: T2 sequence

B1: anti-LY6K antibody 3082 (antibody, V domains shown)
VH: EVQLVESGGGLVKPGGSLRLSCAASGFTFSSSSMNWVRQAPGKGLEWVSSISRSSYYIYYADSVEGRFTISRDNAKNSLYLQMNSLRAEDTAVYYCAKIGSSSEGVEDYYYYYYMDVWGKGTTVTVSS
VL: DIQMTQSPSSLSASVGDRVTITCRASQNINSYLNWYQQKPGKAPKLLIYAASSLQSGVPSRFSGSGSGTDFTLTISSLQPEDFATYYCHQSYSTPLTFGGGTKVEIK
B2: anti-LY6K antibody 3047 (antibody, V domains shown)
VH: EVQLVESGGGLVQPGGSLRLSCAASGFTFSSYSMNWVRQAPGKGLEWVSGINWNGGSTGYADSVKGRFTISRDNAKNSLYLQMNSLRAEDTALYYCARGRLFDYWGQGTLVTVSS
VL: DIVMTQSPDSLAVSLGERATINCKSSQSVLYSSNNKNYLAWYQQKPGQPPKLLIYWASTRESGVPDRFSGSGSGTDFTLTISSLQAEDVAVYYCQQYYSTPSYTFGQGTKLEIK
B3: anti-LY6K antibody 3520 (antibody, V domains shown)
VH: QVQLVQSGSELKKPGASVKVSCKASGYTFTLYAMNWVRQAPGQGLEWMGWINTNTGNPTYAQGFTGRFVFSLDTSVSTAYLQISSLKAEDTAVYYCARTNWNSWGQGTMVTVSS
VL: DIQMTQSPSSLSASVGDRVTITCQASQDISNYLHWFQQKPGKAPKLLIYDASNLETGVPSRFSGSGSGTDFTFTIFSLQPEDIATYYCQHYDNLPLTFGGGTKVEIK
B4: anti-LY6K antibody 3503 (antibody, V domains shown)
VH: EVQLVESGGGLVKPGGSLRLSCAASGFIFSSYSMNWVRQAPGKGLEWVSSISSSSSYIYYADSEKGRFTISRDNAKNSLYLQMNSLRAEDTAVYYCARQSTVVTSDYYYYYMDVWGKGTTVTVSS
VL: B1 VL with N28S, N30S, S31N, K45N, H89Q, T94P, L96I, G100Q, K103R, V104L
B5: anti-LY6K antibody 3522 (antibody, V domains shown)
VH: QVQLQQSGPGLVKPSQTLSLTCAISGDSVSSNSAAWNWIRQSPSRGLEWLGRTYYRSKWYNDYAVSVKSRITINPDTSKNQFSLQLNSVTPEDTAVYYCARECSGSYYRFDPWGQGTLVTVSS
VL: DIVMTQTPLSSPVTLGQPASISCRSSQSLVHSNGNTYLSWLQQRPGQPPRLLIYKISHRFSGVPDRFSGSGAGTDFTLKIRRVEAEDVGVYYCMQATQFPYTFGQGTKLEIK
B6: anti-LY6K antibody 3724 (antibody, V domains shown)
VH: QLQLQESGPGLVKPSETLSLTCTVSGGSINSKSYYWDWIRQPPGKGLEWIGNIYYSGSTYYNPSLKSRVTISVDTSKNQFSLKLSSVTATDTAVYYCARHRGVTVTTYWYFDLWGRGTLVTVSS
VL: EIVLTQSPDFQSVTPKEKVTITCRASQSIGNSLHWYQQKSDQSPKLLIKYVSQSFSGVPSRFSGSGSGTDFTLTINSLEAEDAATYYCHQSSDFPHTFGQGTKLEIK
B7: anti-LY6K antibody 3507 (antibody, V domains shown)
VH: EVQLVESGGGLVKPGGSLRLSCAASGFTFSSYSMNWVRQAPGKGLEWVSSISSSSDYIYYADSVKGRFTISRDDAKNSLYLQMNSLRAEDTAVYYCARGLEPNYYYYMDVWGKGTTVTVSS
VL: EIVMTQSPGTLSVSPGERATLSCRASQSVSSSYLAWYQQKPGQAPRLLIYGASTRATGIPARFSGSGSGTEFTLTISSLQSEDFAVYYCQQYNNWPLTFGGGTKVEIK
B8: anti-LY6K antibody 3704 (antibody, V domains shown)
VH: EVQLVESGGGLVQPGRSLRLSCAASGFTFDDYAMHWVRQAPGKGLEWVSGISWKIITIGYADSVKGRFTISRDNVKNSLYLQMNSLRAEDTALYYCAKDSRTGLDYWGQGTLVTVSS
VL: B1 VL with N28T, N30S, H89Q, S91T, S93T, T94A, G100P, E105D

Biological target: T1, rLY6K-mFc
Assay: SPR (Carterra LSA), mAb captured on anti-human IgG-Fc, antigen as analyte

Binder | Kd
B1 | 240 nM
B2 | 129 nM

Biological target: T2, hLY6K-mFc
Assay: as above

Binder | Kd | binding result
B3 | 0.373 nM | 
B4 | 0.0553 nM | 
B1 | 0.0444 nM | 
B2 | 2720 nM | 
B5 |  | no binding (tested: up to 1.266-6 M as printed)

Biological target: cyLY6K-mFc (cynomolgus monkey)
Assay: as above

Binder | Kd
B3 | 117 nM
B4 | 0.197 nM
B1 | 0.103 nM
B2 | 21600 nM

Biological target: T3, hLY6K-his
Assay: as above

Binder | Kd | binding result
B3 | 31.9 nM | 
B4 | 3.49 nM | 
B1 | 2.06 nM | 
B5 |  | no binding (tested: up to 1.266-6 M as printed)

Biological target: T4, cell-surface anchored LY6K
Assay: IHC, paraffin sections of 293 cells overexpressing LY6K

Binder | binding result
B6 | no binding (tested: 5 ug/ml)
B7 | no binding (tested: 5 ug/ml)
B5 | no binding (tested: 5 ug/ml)
B8 | no binding (tested: 5 ug/ml)

Biological target: T5, recombinant human LY6K (Wuxi)
Assay: capture ELISA (MSD): antibody coated as capture at 2 µg/mL, recombinant human LY6K titrated, sulfo-tagged polyclonal anti-hLY6K (AF6648) for detection; EC50 is the LY6K concentration

Binder | EC50
B3 | 0.536 µg/mL
B4 | 0.064 µg/mL
B1 | 0.0958 µg/mL

Biological target: T5, recombinant human LY6K (Wuxi)
Assay: ELISA, LY6K coated at 2 ug/mL, HRP-labelled mAb titrated

Binder | EC50
B3 | 2.34 nM
B4 | 2.67 nM
B1 | 4.59 nM

Biological target: T6, Ly6D
Assay: ELISA, antigen coated on the plate, antibody as human IgG1, anti-human F(ab)2 HRPO

Binder | binding result
B3 | no binding (tested: 10 µg/ml)
B4 | no binding (tested: 10 µg/ml)
B1 | no binding (tested: 10 µg/ml)

Biological target: T7, human LY6E (R&D Systems)
Assay: as above

Binder | binding result
B3 | no binding (tested: 10 µg/ml)
B4 | no binding (tested: 10 µg/ml)
B1 | no binding (tested: 10 µg/ml)

Biological target: T8, Ly6H
Assay: as above

Binder | binding result
B3 | no binding (tested: 10 µg/ml)
B4 | no binding (tested: 10 µg/ml)
B1 | no binding (tested: 10 µg/ml)

Biological target: T9, Human LY6K (R&D Systems)
Assay: ELISA, coated antigen, IgG1 at 10 ug/ml

Binder | % of maximum of commercial anti-LY6K mAb on human LY6K
B3 | 61.2%
B4 | 66.6%
B1 | 87.2%
B6 | 6.2%
B7 | 2.6%
B5 | 2.1%
B8 | 2.2%

Biological target: T7, human LY6E (R&D Systems)
Assay: ELISA, coated antigen, IgG1 at 10 ug/ml

Binder | % of maximum of commercial anti-LY6K mAb on human LY6K
B3 | 2.8%
B4 | 2.9%
B1 | 2.1%
B2 | 1.7%
B6 | 3.9%
B7 | 1.7%
B5 | 4.3%
B8 | 3.2%

Biological target: T10, rat LY6K (R&D Systems) (rat)
T10 construct: also called rLY6K
Assay: ELISA, coated antigen, IgG1 at 10 ug/ml

Binder | % of maximum of commercial anti-LY6K mAb on human LY6K
B3 | 0.7%
B4 | 0.7%
B1 | -0.5%
B2 | 1.5%
B6 | 3.3%
B7 | -1.2%
B5 | 0.7%
B8 | 0.6%

Biological target: T11, cynomolgus monkey LY6K (R&D Systems) (cynomolgus monkey)
T11 construct: also called cyLY6K
Assay: ELISA, coated antigen, IgG1 at 10 ug/ml

Binder | % of maximum of commercial anti-LY6K mAb on human LY6K
B3 | 13.6%
B4 | 76.4%
B1 | 95.2%
B2 | 3%
B6 | 3.2%
B7 | 2.6%
B5 | 2.6%
B8 | 2%

Biological target: T4, cell-surface anchored LY6K
Assay: flow cytometry on target cells, MFI fitted in Prism; flow cytometry, live target cells, 4 degrees C

Binder | EC50
B3 | 3.61 nM
B4 | 0.576 nM
